Key:
[1] = target: extracellular domain of the S protein of SARS-CoV-2 Omicron BA.1 (BA.1-S) (SARS-CoV-2 Omicron BA.1); experiment: cryo-EM structure
[2] = target: extracellular domain of the S protein of SARS-CoV-2 Omicron BA.3 (BA.3-S) (SARS-CoV-2 Omicron BA.3); experiment: cryo-EM structure

**Q.** For “peptidase domain (PD) of human ACE2 (from UniProt Q9BYF1 19-615) (domain or fragment)”, which stoichiometry N (ACE2-PD per S trimer) [1] is on record?
**A.** The stoichiometry N (ACE2-PD per S trimer) was 2.

**Q.** For “extracellular domain of the S protein of SARS-CoV-2 Omicron BA.1 (BA.1-S) (domain or fragment)”, which stoichiometry N [1] is on record?
**A.** The stoichiometry N was 3.

**Q.** How did the stoichiometry N [2] turn out when “extracellular domain of the S protein of SARS-CoV-2 Omicron BA.3 (BA.3-S) (domain or fragment)” was run?
**A.** Its stoichiometry N is 3.

Source: article PMC10304477
